Assay in all cases: cell-based or functional assay
For assay [1], the target named is ReFacto (rec. FVIII from Pfizer) (UniProt P00451).
Assay [2] addresses CSL627 (recombinant B-Domain-deleted single chain FVIII, rVIII-SingleChain) (Homo sapiens (Human)) (UniProt P00451).
Assay [3] addresses Helixate (rec. FVIII from CSL Behring) (UniProt P00451).
For assay [4], the target named is Advate (rec. FVIII from Shire) (UniProt P00451).

“plasma-derived von Willebrand Factor (pdVWF; BIOSTATE, human plasma derived VWF from CSL Behring) (from UniProt P04275 23-2813)” yielded an IC50, inhibition of factor VIII uptake in MDDCs in assay [1] of 963 nM. For the same substance, in assay [2], the IC50, inhibition of factor VIII uptake in MDDCs was 744 nM; the reduction of CSL627 antigen presentation, HLA-DQB1 restricted peptide clusters is 10 fold; the reduction of CSL627 antigen presentation, peptide clusters (printed HLA-DQB1 a second time) was found to be 3.5 fold; the reduction of CSL627 antigen presentation, unique HLA-DPB1 bound peptides was found to be 14.2 fold. Further, the reduction of CSL627 antigen presentation, unique HLA-DQB1 bound peptides in assay [2] is 21.7 fold. This substance also gave an IC50, inhibition of factor VIII uptake in MDDCs in assay [3] of 823 nM.
Regarding “CSL626 (truncated VWF (764-1242)-albumin fusion, dimer)”, the IC50, inhibition of factor VIII uptake in MDDCs worked out at 1570 nM in assay [1], 1720 nM in assay [2], 1690 nM in assay [3] and 2230 nM in assay [4].
In the same order, the values of “CSL650 (rec. VWF-albumin fusion from CSL Behring)” are 778 nM, 750 nM, 552 nM and 769 nM.

For the origin of these results see patent publication US20200197495A1.
